Values belong to the substance of their own block, whether it stands above or below them.
Experiments:
Assay in all cases: SEC; 200 uL of purified protein on a Superdex 200 10/30 column in TBS with 5 mM EDTA, pH 7.4, 0.3 mL/min; elution at 280 nm compared with molecular weight standards (12.4 to 443 kDa) and with refolded reference preparations
[1] = biological target: recombinant fragment of human SP-A (rfhSP-A) expressed and isolated as a soluble protein using NT* (human)
[2] = biological target: recombinant fragment of human SP-D (rfhSP-D) expressed and isolated as a soluble protein using NT* (human)
[3] = biological target: rfhSP-A refolded using the previous refolding protocol using NTwt (human)
[4] = biological target: rfhSP-D expressed and purified without an expression tag using the standard rfhSP-D purification protocol (human)

percent of the protein eluting at the volume of the trimer [1]: 24%
stoichiometry N [1]: 3
Substance: recombinant fragment of human SP-A (rfhSP-A) expressed and isolated as a soluble protein using NT* (domain or fragment)

percent of the protein eluting at the volume of the trimer [2]: 88.5%
stoichiometry N [2]: 3
Substance: recombinant fragment of human SP-D (rfhSP-D) expressed and isolated as a soluble protein using NT* (domain or fragment)

stoichiometry N [3]: 3
Substance: rfhSP-A refolded using the previous refolding protocol using NTwt (domain or fragment)

stoichiometry N [4]: 3
Substance: rfhSP-D expressed and purified without an expression tag using the standard rfhSP-D purification protocol (domain or fragment)
